Our source for the Kd values is doi:10.1101/2021.05.19.444834.

For orientation: Kd means the constant that tells how readily two partners part at equilibrium.

Experiment [1] addresses doubly dehydrated C62A ThfA (Thermobifida fusca). The experiment can be described thus: BLI.
Experiment [2] deals with unmodified C62A ThfA (Thermobifida fusca). The experiment is described as follows: BLI. On the technique in general: In BLI a coated tip is dipped into the sample, and binding shifts an interference pattern.

For “maltose binding protein (MBP) fusion to ThfB (enzyme)”, the Kd in experiment [1] was determined as 18 nM; in experiment [2], 28 nM.
